How the values were obtained:
[1] = molecular target: Peptide P3 (BMP9 peptide mimetic designed from the type I receptor binding site) (UniProt Q9UK05 320-429); test: SPR
[2] = molecular target: Peptide P3r (randomly shuffled amino acid sequence of peptide P3); test: SPR

Kd [1] [mM] | Kd [2] [mM] | Binder
5.8 | 4.3 | ALK3-Fc (activin receptor like kinase 3, Fc fusion) (Fc fusion) QNLDSMLHGTGMKSDSDQKKSENGVTLAPEDTLPFLKCYCSGHCPDDAINNTCITNGHCFAIIEEDDQGETTLASGCMKYEGSDFQCKDSPKAQLRRTIECCRTNLCNQYLQPTLPPVVIGPFFDGSIR
6.7 | 9.42 | ALK2-Fc (activin receptor like kinase 2, Fc fusion) (Fc fusion) MEDEKPKVNPKLYMCVCEGLSCGNEDHCEGQQCFSSLSINDGFHVYQKGCFQVYEQGKMTCKTPPSPGQAVECCQGDWCNRNITAQLPTKGKSFPGTQNFHLE
